Positions count from the first letter of the chain named.
B1: 369_A03 (antibody, V domains shown)
VH: EVQLLESGGGLVQPGGSLRLSCAASGFTFSSYGMNWVRQAPGKGLEWVSNINYNGGYTGYADSVKGRFTISRDNSKNTLYLQMNSLRAEDTAVYYCARSANWHDTALDYWGQGTLVTVSS
VL: DIQMTQSPSSLSASVGDRVTITCRASQSILTYLNWYQQKPGKAPKLLIYAVTSRHSGVPSRFSGSGSGTDFTLTISSLQPEDFATYYCQQGYDLPLTFGGGTKVEIK
B2: 369_F08 (antibody, V domains shown)
VH: B1 VH with S31D, N35H, N50G, G55S, G59S, S99G
VL: B1 VL with T31S, V51A, T52S, R54L, H55Q, G91S
B3: 373_B11 (antibody, V domains shown)
VH: B1 VH with G33S, S49A, G55S, T58K, N101T, A106H
VL: B1 VL with T31S, V51A, H55A, G91S, L94N
B4: 373_B03 (antibody, V domains shown)
VH: B1 VH with G33S, S49A, N50G, G55S, T58K, G59S, N101T, A106H
VL: B1 VL with L47V, V51A, R54L, H55A, G91S, L94N
B5: 365_A10 (antibody, V domains shown)
VH: B1 VH with N35H, S49A, N50G, G55S, G59S, N101T, A106H
VL: B1 VL with L47V, R54L, H55A, G91S, L94S
B6: 374_B09 (antibody, V domains shown)
VH: B1 VH with G33S, N50G, T58K, G59S, N101T, A106H
VL: B1 VL with L30V, T31R, L47V, V51A, R54L, H55A, G91S, D93E
B7: 375_B04 (antibody, V domains shown)
VH: B1 VH with S30D, G33S, S49A, N101T, A106H
VL: B1 VL with V51A, H55A, G91S, L94N
B8: 368_F12 (antibody, V domains shown)
VH: B1 VH with S30D, S31D, G33S, S49A, N50S, G55S, T58K, G59S, N101T, A106H
VL: B1 VL with L30V, L47V, V51A, R54L, H55A, G91S
B9: 372_D04 (antibody, V domains shown)
VH: B1 VH with G33S, S49A, G55S, N101T, A106H
VL: B1 VL with V51A, R54L, G91S
B10: 375_G07 (antibody, V domains shown)
VH: B1 VH with S30D, G33S, S49A, N50G, G55S, G59S, N101T, A106H
VL: B1 VL with T31S, L47V, V51A, R54L, H55A, G91S
B11: 374_H08 (antibody, V domains shown)
VH: B1 VH with S30D, G33S, N50G, N101T, A106H
VL: B1 VL with T31S, V51A, R54L, G91S, D93E, L94N
B12: 366_D02 (antibody, V domains shown)
VH: B1 VH with G33S, S49A, N50S, G59S, N101T, A106H
VL: B1 VL with T31S, L33V, V51T, R54L, H55A, G91S
B13: 365_C09 (antibody, V domains shown)
VH: B1 VH with S31D, N50G, T58K, G59S, N101T, A106H
VL: B1 VL with L30V, T31S, L33V, V51A, H55A, G91S, L94T
B14: 370_E07 (antibody, V domains shown)
VH: B1 VH with S30D, G33S, S49A, N101T, A106H
VL: B1 VL with V51A, H55A, G91S, L94N
B15: 374_D12 (antibody, V domains shown)
VH: B1 VH with S30D, G33S, N50G, N101T, A106H
VL: B1 VL with L30V, T31S, L33V, L47V, V51A, H55A, G91S
B16: 369_A10 (antibody, V domains shown)
VH: B1 VH with S30D, G33S, S49A, N50G, G55S, N101T, A106H
VL: B1 VL with T31S, V51A, H55A, G91S, D93E
B17: 365_F08 (antibody, V domains shown)
VH: B1 VH with S30D, S31D, S49A, G59S, N101T, A106H
VL: B1 VL with T31S, L33V, V51A, G91S, D93S
B18: 368_H12 (antibody, V domains shown)
VH: B1 VH with S30D, G33S, S49A, N50S, G55S, T58K, N101T, A106H
VL: B1 VL with L30V, V51A, H55A, G91S, D93E, L94S
B19: 373_B08 (antibody, V domains shown)
VH: B1 VH with S30D, G33S, S49A, G55S, T58K, N101T, A106H
VL: B1 VL with L47V, V51A, R54L, H55A, G91S, D93E, L94N
B20: 374_E09 (antibody, V domains shown)
VH: B1 VH with S31D, G33S, N50G, T58K, N101T, A106H
VL: B1 VL with L30V, L47V, V51A, H55A, G91S, L94S
B21: 370_A06 (antibody, V domains shown)
VH: B1 VH with G33S, S49A, N50S, G55S, T58K, G59S, N101T, A106H
VL: B1 VL with L30V, L47V, V51A, R54L, H55A, G91S
B22: 374_C04 (antibody, V domains shown)
VH: B1 VH with G33S, S49A, N50G, G55S, T58K, G59S, N101T, A106H
VL: B1 VL with V51A, T52S, R54L, H55Q, G91S, D93E
B23: 368_E11 (antibody, V domains shown)
VH: B1 VH with S30D, N35H, S49A, G59S, N101T, A106H
VL: B1 VL with L30I, T31S, L33V, V51A, G91S, D93E
B24: 374_D02 (antibody, V domains shown)
VH: B1 VH with S30D, G33S, S49A, N50G, G55S, G59S, N101T, A106H
VL: B1 VL with L30S, L33V, R54L, H55A, G91S, L94S
B25: 371_F05 (antibody, V domains shown)
VH: B1 VH with G33S, S49A, N50G, G55S, T58K, G59S, N101T, A106H
VL: B1 VL with T31S, V51A, G91S, D93E, L94N
B26: 368_H01 (antibody, V domains shown)
VH: B1 VH with G33S, S49A, N50G, G55S, T58K, G59S, N101T, A106H
VL: B1 VL with T31S, V51T, R54L, H55A, G91S, L94N
B27: 368_G09 (antibody, V domains shown)
VH: B1 VH with S30D, N35H, S49A, G59S, N101T, A106H
VL: B1 VL with L30V, T31S, L47V, V51A, H55A, G91S, L94T
B28: 367_F02 (antibody, V domains shown)
VH: B1 VH with S30D, G33S, S49A, G59S, N101T, A106H
VL: B1 VL with L30I, T31S, L33V, V51A, G91S, D93E, L94S
B29: 369_B12 (antibody, V domains shown)
VH: B1 VH with S30D, G33S, N50G, T58K, G59S, N101T, A106H
VL: B1 VL with L33V, V51T, R54L, H55A, G91S, L94S
B30: 371_C09 (antibody, V domains shown)
VH: B1 VH with S30D, G33S, N50G, T58K, G59S, N101T, A106H
VL: B1 VL with L33V, V51A, T52S, R54L, H55Q, G91S, L94N
B31: 370_C04 (antibody, V domains shown)
VH: B1 VH with S49A, N50S, G55S, G59S, N101T, A106H
VL: B1 VL with T31S, V51A, T52S, R54L, H55Q, G91S, D93E, L94N
B32: 374_C02 (antibody, V domains shown)
VH: B1 VH with S30D, G33S, N50G, N101T, A106H
VL: B1 VL with T31S, V51A, G91S, L94S
B33: 369_B02 (antibody, V domains shown)
VH: B1 VH with S30D, G33S, N50G, T58K, G59S, N101T, A106H
VL: B1 VL with T31S, L47V, V51A, H55A, G91S, D93N
B34: 369_F12 (antibody, V domains shown)
VH: B1 VH with G33S, S49A, N50S, G55S, T58K, G59S, N101T, A106H
VL: B1 VL with L30I, T31S, R54L, H55A, G91S, D93E, L94N
B35: 373_F03 (antibody, V domains shown)
VH: B1 VH with S30D, G33S, S49A, G55S, N101T, A106H
VL: B1 VL with L33V, V51A, G91S, L94S
B36: 375_C12 (antibody, V domains shown)
VH: B1 VH with G33S, S49A, N101T, A106H
VL: B1 VL with V51A, H55A, G91S
B37: 371_G03 (antibody, V domains shown)
VH: B1 VH with S49A, T58K, N101T, A106H
VL: B1 VL with L30V, L33V, L47V, V51A, R54L, H55A, G91S, D93N
B38: 367_G07 (antibody, V domains shown)
VH: B1 VH with S30D, G33S, S49A, N101T, A106H
VL: B1 VL with L33V, V51A, H55A, G91S, L94N

molecular target: Mouse ACVR2A (mouse) (UniProt P27038); experiment: ELISA
Sequence (P27038 20-135 limits assumed): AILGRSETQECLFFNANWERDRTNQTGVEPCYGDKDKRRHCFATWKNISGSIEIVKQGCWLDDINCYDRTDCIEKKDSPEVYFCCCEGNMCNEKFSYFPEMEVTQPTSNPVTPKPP

In order of rising optical density:
1. B1  0.561 OD
2. B2  0.589 OD

molecular target: human ACVR2A (human) (UniProt P27037); experiment: ELISA
Sequence (P27037 20-135 limits assumed): as the sequence (P27038 20-135 limits assumed) above, with R20K, I73V counted along it

For B2, the optical density was 0.503 OD.

molecular target: human Fc (human); experiment: ELISA; negative control

In order of falling optical density:
1. B33  0.456 OD
2. B17  0.437 OD
3. B34  0.434 OD
4. B9  0.419 OD
5. B29  0.4 OD
6. B18  0.381 OD
7. B14  0.379 OD
8. B26  0.374 OD
9. B37  0.359 OD
10. B8  0.349 OD
11. B12  0.349 OD
12. B16  0.348 OD
13. B23  0.341 OD
14. B31  0.334 OD
15. B21  0.331 OD
16. B28  0.315 OD
17. B30  0.308 OD
18. B25  0.297 OD
19. B38  0.295 OD
20. B5  0.293 OD
21. B27  0.281 OD
22. B13  0.266 OD
23. B15  0.235 OD
24. B24  0.204 OD
25. B22  0.201 OD
26. B11  0.199 OD
27. B36  0.197 OD
28. B7  0.19 OD
29. B4  0.18 OD
30. B35  0.179 OD
31. B3  0.178 OD
32. B10  0.178 OD
33. B6  0.172 OD
34. B19  0.17 OD
35. B32  0.167 OD
36. B20  0.162 OD

molecular target: Human Fc (human); experiment: ELISA, negative control

In the case of B1, the optical density is reported as 0.347 OD.

molecular target: human Fc (human); experiment: ELISA, negative control

In the case of B2, the optical density is reported as 0.302 OD.

Source: patent US20210380703A1
